# Target: T1, DLL4 ECD His tag (UniProt Q9NR61 27-529, limits assumed)
# T1 construct: extracellular domain; also called DLL ECD His tag
# Assay: SPR (Biacore), DVD-Ig captured, DLL4 as analyte
Binder,Kd [nM],koff [s⁻¹],kon [M⁻¹ s⁻¹]
"DVD502 (bispecific antibody, human IgG1, kappa, HC linker long, LC linker short; also called DVD-Ig DVD502) heavy: not shown light: DIQMTQSPSSLSASVGDRVTITCRASQDVSTAVAWYQQKPGKAPKLLIYSASFLYSGVPSRFSGSGSGTDFTLTISSLQPEDFATYYCQQSYTTPPTFGQGTKVEIKRTVAAPDIQMTQSSSYLSVSLGGRVTITCKASDHINNWLAWYQQKPGNAPRLLISGATSLETGVPSRFSGSGSGKDYTLSITSLQTEDVATYYCQQYWSIPLTFGAGTKLELKRTVAAPSVFIFPPSDEQLKSGTASVVCLLNNFYPREAKVQWKVDNALQSGNSQESVTEQDSKDSTYSLSSTLTLSKADYEKHKVYACEVTHQGLSSPVTKSFNRGEC",0.807,7.43e-05,92100
"DVD508 (bispecific antibody, human IgG1, kappa, HC linker short, LC linker long; also called DVD-Ig DVD508) heavy: not shown light: DIQMTQSPSSLSASVGDRVTITCRASQDVSTAVAWYQQKPGKAPKLLIYSASFLYSGVPSRFSGSGSGTDFTLTISSLQPEDFATYYCQQSYTTPPTFGQGTKVEIKRTVAAPSVFIFPPDIQMTQSSSYLSVSLGGRVTITCKASDHINNWLAWYQQKPGNAPRLLISGATSLETGVPSRFSGSGSGKDYTLSITSLQTEDVATYYCQQYWSIPLTFGAGTKLELKRTVAAPSVFIFPPSDEQLKSGTASVVCLLNNFYPREAKVQWKVDNALQSGNSQESVTEQDSKDSTYSLSSTLTLSKADYEKHKVYACEVTHQGLSSPVTKSFNRGEC",1.7,0.000167,98400

# Target: T2, VEGF (UniProt P15692-4 27-191)
# T2 construct: Bought reagent; also called vascular endothelial growth factor
# Assay: SPR (Biacore), DVD-Ig captured, VEGF in solution
# T2 sequence (P15692 other isoform, or with tags, fused parts or gaps limits assumed): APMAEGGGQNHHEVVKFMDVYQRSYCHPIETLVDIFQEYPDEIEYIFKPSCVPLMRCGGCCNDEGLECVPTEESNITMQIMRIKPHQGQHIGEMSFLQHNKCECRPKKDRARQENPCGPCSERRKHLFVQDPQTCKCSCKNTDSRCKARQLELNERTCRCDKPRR
Binder,Kd [nM],koff [s⁻¹],kon [M⁻¹ s⁻¹]
"DVD474 (bispecific antibody, human IgG1, kappa, DVD-Ig; N-term; VD AB071 (VEGF), C-term; VD AB015 (DLL4); HC linker long, LC linker long; also called DVD474H; DVD474L) heavy: not shown light: DIQMTQSPSSLSASVGDRVTITCRASQVIRRSLAWYQQKPGKAPKLLIYAASNLASGVPSRFSGSGSGTDFTLTISSLQPEDFATYYCQQSNTSPLTFGQGTKVEIKRTVAAPSVFIFPPDIQMTQSPSSLSASVGDRVTITCRASQDVSTAVAWYQQKPGKAPKLLIYSASFLYSGVPSRFSGSGSGTDFTLTISSLQPEDFATTYYCQQSYTGTVTFGQGTKVEIKRTVAAPSVFIFPPSDEQLKSGTASVVCLLNNFYPREAKVQWKVDNALQSGNSQESVTEQDSKDSTYSLSSTLTLSKADYEKHKVYACEVTHQGLSSPVTKSFNRGEC",0.00144,–,–
"DVD480 (bispecific antibody, human IgG1, kappa, DVD-Ig; N-term; VD AB071 (VEGF), C-term; VD AB015 (DLL4); HC linker long, LC linker short; also called DVD480H; DVD480L) heavy: not shown light: DIQMTQSPSSLSASVGDRVTITCRASQVIRRSLAWYQQKPGKAPKLLIYAASNLASGVPSRFSGSGSGTDFTLTISSLQPEDFATYYCQQSNTSPLTFGQGTKVEIKRTVAAPDIQMTQSPSSLSASVGDRVTITCRASQDVSTAVAWYQQKPGKAPKLLIYSASFLYSGVPSRFSGSGSGTDFTLTISSLQPEDFATTYYCQQSYTGTVTFGQGTKVEIKRTVAAPSVFIFPPSDEQLKSGTASVVCLLNNFYPREAKVQWKVDNALQSGNSQESVTEQDSKDSTYSLSSTLTLSKADYEKHKVYACEVTHQGLSSPVTKSFNRGEC",0.302,4.91e-05,162000
"DVD486 (bispecific antibody, human IgG1, kappa, DVD-Ig; N-term; VD AB071 (VEGF), C-term; VD AB015 (DLL4); HC linker short, LC linker long; also called DVD486H; DVD486L) heavy: not shown light: DIQMTQSPSSLSASVGDRVTITCRASQVIRRSLAWYQQKPGKAPKLLIYAASNLASGVPSRFSGSGSGTDFTLTISSLQPEDFATYYCQQSNTSPLTFGQGTKVEIKRTVAAPSVFIFPPDIQMTQSPSSLSASVGDRVTITCRASQDVSTAVAWYQQKPGKAPKLLIYSASFLYSGVPSRFSGSGSGTDFTLTISSLQPEDFATTYYCQQSYTGTVTFGQGTKVEIKRTVAAPSVFIFPPSDEQLKSGTASVVCLLNNFYPREAKVQWKVDNALQSGNSQESVTEQDSKDSTYSLSSTLTLSKADYEKHKVYACEVTHQGLSSPVTKSFNRGEC",0.371,–,–
"DVD446 (bispecific antibody, human IgG1, kappa, DVD-Ig; N-term; VD AB071 (VEGF), C-term; VD AB069 (DLL4); HC linker short, LC linker short; also called DVD446H; DVD446L) heavy: not shown light: DIQMTQSPSSLSASVGDRVTITCRASQVIRRSLAWYQQKPGKAPKLLIYAASNLASGVPSRFSGSGSGTDFTLTISSLQPEDFATYYCQQSNTSPLTFGQGTKVEIKRTVAAPDIVMTQSPDSLAVSLGERATISCRASESVDNYGISFMKWFQQKPGQPPKLLIYAASNQGSGVPDRFSGSGSGTDFTLTISSLQAEDVAVYYCQQSKEVPWTFGGGTKVEIKRTVAAPSVFIFPPSDEQLKSGTASVVCLLNNFYPREAKVQWKVDNALQSGNSQESVTEQDSKDSTYSLSSTLTLSKADYEKHKVYACEVTHQGLSSPVTKSFNRGEC",0.000297,3.62e-08,122000
"DVD452 (bispecific antibody, human IgG1, kappa, L234A L235A, DVD-Ig; N-term; VD AB071 (VEGF), C-term; VD AB069 (DLL4); HC linker long, LC linker long; also called DVD452H; DVD452L) heavy: not shown light: DIQMTQSPSSLSASVGDRVTITCRASQVIRRSLAWYQQKPGKAPKLLIYAASNLASGVPSRFSGSGSGTDFTLTISSLQPEDFATYYCQQSNTSPLTFGQGTKVEIKRTVAAPSVFIFPPDIVMTQSPDSLAVSLGERATISCRASESVDNYGISFMKWFQQKPGQPPKLLIYAASNQGSGVPDRFSGSGSGTDFTLTISSLQAEDVAVYYCQQSKEVPWTFGGGTKVEIKRTVAAPSVFIFPPSDEQLKSGTASVVCLLNNFYPREAKVQWKVDNALQSGNSQESVTEQDSKDSTYSLSSTLTLSKADYEKHKVYACEVTHQGLSSPVTKSFNRGEC",0.000155,1.61e-08,104000
"DVD458 (bispecific antibody, human IgG1, kappa, L234A L235A, DVD-Ig; N-term; VD AB071 (VEGF), C-term; VD AB069 (DLL4); HC linker long, LC linker short; also called DVD458H; DVD458L) heavy: not shown light: DIQMTQSPSSLSASVGDRVTITCRASQVIRRSLAWYQQKPGKAPKLLIYAASNLASGVPSRFSGSGSGTDFTLTISSLQPEDFATYYCQQSNTSPLTFGQGTKVEIKRTVAAPDIVMTQSPDSLAVSLGERATISCRASESVDNYGISFMKWFQQKPGQPPKLLIYAASNQGSGVPDRFSGSGSGTDFTLTISSLQAEDVAVYYCQQSKEVPWTFGGGTKVEIKRTVAAPSVFIFPPSDEQLKSGTASVVCLLNNFYPREAKVQWKVDNALQSGNSQESVTEQDSKDSTYSLSSTLTLSKADYEKHKVYACEVTHQGLSSPVTKSFNRGEC",0.000281,3.39e-08,121000
"DVD464 (bispecific antibody, human IgG1, kappa, DVD-Ig; N-term; VD AB071 (VEGF), C-term; VD AB069 (DLL4); HC linker short, LC linker long; also called DVD464H; DVD464L) heavy: not shown light: DIQMTQSPSSLSASVGDRVTITCRASQVIRRSLAWYQQKPGKAPKLLIYAASNLASGVPSRFSGSGSGTDFTLTISSLQPEDFATYYCQQSNTSPLTFGQGTKVEIKRTVAAPSVFIFPPDIVMTQSPDSLAVSLGERATISCRASESVDNYGISFMKWFQQKPGQPPKLLIYAASNQGSGVPDRFSGSGSGTDFTLTISSLQAEDVAVYYCQQSKEVPWTFGGGTKVEIKRTVAAPSVFIFPPSDEQLKSGTASVVCLLNNFYPREAKVQWKVDNALQSGNSQESVTEQDSKDSTYSLSSTLTLSKADYEKHKVYACEVTHQGLSSPVTKSFNRGEC",0.00077,7.22e-08,93700
"DVD516 (bispecific antibody, human IgG1, lambda, DVD-Ig; N-term; VD AB071 (VEGF), C-term; VD AB073 (DLL4); HC linker short, LC linker short; also called DVD516H; DVD516L) heavy: not shown light: DIQMTQSPSSLSASVGDRVTITCRASQVIRRSLAWYQQKPGKAPKLLIYAASNLASGVPSRFSGSGSGTDFTLTISSLQPEDFATYYCQQSNTSPLTFGQGTKVEIKRTVAAPQAVVTQESALTTSPGETVTLTCRSSTGAVTTSNYANWVQEKPDHLFTGLIGGTNNRAPGVPARFSGSLIGDKAALTITGAQTEDEAIYFCALWYSNHWVFGGGTKLTVLGQPKAAPSVTLFPPSSEELQANKATLVCLISDFYPGAVTVAWKADSSPVKAGVETTTPSKQSNNKYAASSYLSLTPEQWKSHRSYSCQVTHEGSTVEKTVAPTECS",0.781,0.00028,358000
"DVD522 (bispecific antibody, human IgG1, kappa, lambda, L234A L235A, DVD-Ig; N-term; VD AB071 (VEGF), C-term; VD AB073 (DLL4); HC linker long, LC linker long; also called DVD522H; DVD522L) heavy: not shown light: DIQMTQSPSSLSASVGDRVTITCRASQVIRRSLAWYQQKPGKAPKLLIYAASNLASGVPSRFSGSGSGTDFTLTISSLQPEDFATYYCQQSNTSPLTFGQGTKVEIKRTVAAPSVFIFPPQAVVTQESALTTSPGETVTLTCRSSTGAVTTSNYANWVQEKPDHLFTGLIGGTNNRAPGVPARFSGSLIGDKAALTITGAQTEDEAIYFCALWYSNHWVFGGGTKLTVLGQPKAAPSVTLFPPSSEELQANKATLVCLISDFYPGAVTVAWKADSSPVKAGVETTTPSKQSNNKYAASSYLSLTPEQWKSHRSYSCQVTHEGSTVEKTVAPTECS",0.45,0.00022,489000
"DVD528 (bispecific antibody, human IgG1, lambda, DVD-Ig; N-term; VD AB071 (VEGF), C-term; VD AB073 (DLL4); HC linker long, LC linker short; also called DVD528H; DVD528L) heavy: not shown light: DIQMTQSPSSLSASVGDRVTITCRASQVIRRSLAWYQQKPGKAPKLLIYAASNLASGVPSRFSGSGSGTDFTLTISSLQPEDFATYYCQQSNTSPLTFGQGTKVEIKRTVAAPQAVVTQESALTTSPGETVTLTCRSSTGAVTTSNYANWVQEKPDHLFTGLIGGTNNRAPGVPARFSGSLIGDKAALTITGAQTEDEAIYFCALWYSNHWVFGGGTKLTVLGQPKAAPSVTLFPPSSEELQANKATLVCLISDFYPGAVTVAWKADSSPVKAGVETTTPSKQSNNKYAASSYLSLTPEQWKSHRSYSCQVTHEGSTVEKTVAPTECS",0.413,0.00016,388000
"DVD534 (bispecific antibody, human IgG1, kappa, lambda, L234A L235A, DVD-Ig; N-term; VD AB071 (VEGF), C-term; VD AB073 (DLL4); HC linker short, LC linker long; also called DVD534H; DVD534L) heavy: not shown light: DIQMTQSPSSLSASVGDRVTITCRASQVIRRSLAWYQQKPGKAPKLLIYAASNLASGVPSRFSGSGSGTDFTLTISSLQPEDFATYYCQQSNTSPLTFGQGTKVEIKRTVAAPSVFIFPPQAVVTQESALTTSPGETVTLTCRSSTGAVTTSNYANWVQEKPDHLFTGLIGGTNNRAPGVPARFSGSLIGDKAALTITGAQTEDEAIYFCALWYSNHWVFGGGTKLTVLGQPKAAPSVTLFPPSSEELQANKATLVCLISDFYPGAVTVAWKADSSPVKAGVETTTPSKQSNNKYAASSYLSLTPEQWKSHRSYSCQVTHEGSTVEKTVAPTECS",0.449,0.000168,374000
"DVD492 (bispecific antibody, human IgG1, kappa, DVD-Ig; N-term; VD AB071 (VEGF), C-term; VD AB072 (DLL4); HC linker short, LC linker short; also called DVD492H; DVD492L) heavy: not shown light: DIQMTQSPSSLSASVGDRVTITCRASQVIRRSLAWYQQKPGKAPKLLIYAASNLASGVPSRFSGSGSGTDFTLTISSLQPEDFATYYCQQSNTSPLTFGQGTKVEIKRTVAAPDIQMTQSSSYLSVSLGGRVTITCKASDHINNWLAWYQQKPGNAPRLLISGATSLETGVPSRFSGSGSGKDYTLSITSLQTEDVATYYCQQYWSIPLTFGAGTKLELKRTVAAPSVFIFPPSDEQLKSGTASVVCLLNNFYPREAKVQWKVDNALQSGNSQESVTEQDSKDSTYSLSSTLTLSKADYEKHKVYACEVTHQGLSSPVTKSFNRGEC",0.0499,7.6e-06,152000
"DVD498 (bispecific antibody, human IgG1, kappa, DVD-Ig; N-term; VD AB071 (VEGF), C-term; VD AB072 (DLL4); HC linker long, LC linker long; also called DVD498H; DVD498L) heavy: not shown light: DIQMTQSPSSLSASVGDRVTITCRASQVIRRSLAWYQQKPGKAPKLLIYAASNLASGVPSRFSGSGSGTDFTLTISSLQPEDFATYYCQQSNTSPLTFGQGTKVEIKRTVAAPSVFIFPPDIQMTQSSSYLSVSLGGRVTITCKASDHINNWLAWYQQKPGNAPRLLISGATSLETGVPSRFSGSGSGKDYTLSITSLQTEDVATYYCQQYWSIPLTFGAGTKLELKRTVAAPSVFIFPPSDEQLKSGTASVVCLLNNFYPREAKVQWKVDNALQSGNSQESVTEQDSKDSTYSLSSTLTLSKADYEKHKVYACEVTHQGLSSPVTKSFNRGEC",0.176,2.85e-05,162000

# From US20100260668A1 (published 2010)
